Data as given in US20200277405A1, “COMPOSITION FOR ANTIBODY-DRUG CONJUGATE DIRECTED AGAINST TUMOR-CELL ASSOCIATED POLYSIALIC ACID” (Cornell University, priority 2019, published 2020).

B1: mo735: well-known mouse-derived IgG2a monoclonal antibody 735 targeting polysialic acid (antibody, V domains shown)
VH: QIQLQQSGPELVRPGASVKISCKASGYTFTDYYIHWVKQRPGEGLEWIGWIYPGSGNTKYNEKFKGKATLTVDTSSSTAYMQLSSLTSEDSAVYFCARGGKFAMDYWGQGTSVTVSS
VL: DVVMTQTPLSLPVSLGDQASISCRSSQSLVHSNGNTYLYWYLQKPGQSPKPLIYRVSNRFSGVPDRFSGSGSGTDFTLKISRVEAEDLGVYFCFQGTHVPYTFGGGTRLEIK
B2: ch735: chimeric human IgG1 polySia-specific mAb made by swapping variable regions of mouse mAb 735 (antibody, V domains shown)
VH: B1 VH
VL: B1 VL

Experiments:
cultured neurons = conditions: unconjugated antibody; cited from earlier work
[1] = molecular target: embryonic brain glycopeptides; conditions: against embryonic brain glycopeptides (Hayrinen et al.); read-out: previously reported Kd; cited from earlier work
SW2 cells [2] = test: Colocalization microscopy, SW2; format: cell-based, human; conditions: transferrin and LAMP-3 markers
Protocol: FIGS. 12A-12C depict colocalization of mo735 with markers that traffic to endolysosomal compartments. […] For LAMP-1 (right), confocal microscopic images were taken after labeling SH-SY5Y cells with ch735 or isotype antibody for 2 h. Following fixation and permeabilization, LAMP-1 antibody was applied and detected with anti-rabbit AF647 secondary. Anti-human IgG AF488 was used to detect ch735 or isotype antibody. […] Cross-sectional fluorescence profiles are shown at right with normalized pixel intensity for selected cells (marked with box in left confocal panels) versus distance across the cell for representative cross sections (marked with bar in right confocal panels).
SH—SY5Y or SW2 cells were plated at 20,000 cells/cm^2 on poly-L-lysine coated 35 mm glass bottom dishes and adhered overnight. To remove polySia, cells were treated as described above. To measure receptor-antibody internalization, cells were incubated with 150 nM AF488 labeled ch735, human IgG isotype control (ThermoFisher Scientific), mo735, or mouse IgG isotype control (anti-MBP mAb, NEB) and 100 nM AF647 transferrin or AF647 anti-LAMP-3 antibody (Santa Cruz) for 1 h. Cells were washed and then fixed as described above. […] The fluorescence intensity of the plot profile was analyzed using FIJI software. Fluorescence intensity was normalized to the maximum value for each channel.

SW2 cells [3] = test: Supplementary internalization assays; format: cell-based, human; conditions: increases with concentration and time
From the text: FIGS. 11A-11D depict internalization of mo735 by polySia-expressing cancer cells. […] Trypan blue was used to quench extracellular fluorescence. […] Cell membranes were labeled with wheat germ agglutinin (WGA,) and nuclei were stained with Hoescht. Scale bar, 10 μm. […] Cell membranes were labeled with wheat germ agglutinin (WGA) and nuclei were stained with Hoescht. Scale bar, 10 μm. […] Images include external mo735 detected with anti-mouse AF488, internal mo735 detected with anti-mouse AF647, nuclei stained with Hoescht, and a merged image. Scale bar, 10 μm.
For supplementary internalization assays, AF488-labeled isotype and mo735 antibodies were incubated with trypsinized SW2 cells at various concentrations for 2 h. Upon measurement in the flow cytometer, the extracellular fluorescence was quenched using trypan blue (final concentration 0.2%). For each sample, the mean fluorescence intensity (MFI) of 10,000 cells was measured in triplicate. […] Antibody internalization was also assessed according to the protocol described by Schmitz and coworkers (Diestel et al., “NCAM is Ubiquitylated, Endocytosed and Recycled in Neurons,” J. Cell. Sci. 120:4035-49 (2007), which is hereby incorporated by reference in its entirety), cells were incubated for 1 or 4 h at 37° C. with 150 nM mo735 in cell culture media. […]

[4] = test system: polySia-negative MCF7 cells; test: Internalization assay, MCF7; format: cell-based, human; conditions: after 1 h
Protocol: FIGS. 10A-10E depict internalization of ch735 into polySia-positive cancer cells. […] Nuclei were stained by Hoescht (blue). Scale bar, 10 Fluorescence intensity was measured across the dotted line and normalized to the maximum value in each channel. Arrows indicate regions of colocalization. […] Nuclei were stained by Hoescht. Scale bar, 10 Fluorescence intensity was measured across the dotted line and normalized to the maximum value in each channel. Arrows indicate regions of colocalization. The inset show only the ch735 and DNA channels of the boxed region. […] Scale bar, 10 Fluorescence intensity was measured across the dotted white line and normalized to the maximum value in each channel. […]
To calculate percent internalization, pre-chilled cells were incubated with 50 nM ch735 on ice for 1 h and then washed to remove unbound antibodies. […] Cells were fixed in 2% paraformaldehyde for 20 min and then stained with AF488-labeled antibody against human IgG and analyzed by flow cytometry and FlowJo software. Receptor-antibody complex internalization was calculated using the geometric mean as percent fluorescent intensity loss at 37° C. relative to that on ice. For each sample, the geometric mean fluorescence intensity (MFI) of 10,000 cells was measured in triplicate.

Row | Molecule | complement-dependent cytotoxicity (CDC) (cultured neurons) | Kd [1] [nM] | compartments of accumulation after internalization (confocal) (SW2 cells [2]) | antibody internalization (SW2 cells [3]) | antibody internalization [4]
1 | B1 | only limited complement-dependent cytotoxicity (CDC) | ~5 | compartmentalized in early and recycling endosomes | comparable internalization | –
2 | B2 | – | – | – | – | no internalization
